Paper PMC11145553, “SORL1 is a receptor for tau that promotes tau seeding” (The Journal of Biological Chemistry, 2024)

Columns and labels:
Conditions in all cases: both partners purified
[1] = target: T1, Phosphorylated 2N4R tau produced in SF9 cells (human, UniProt P10636-8 1-441, phosphorylated (hyperphosphorylated forms; intermediate tau phosphorylation state); sites not given); assay: SPR; SORL1 VPS10 domain amine-coupled to a CM5 chip; tau in single cycle titrations (3.8-310 nM); 0.15 M NaCl, 0.05% Tween 20, 1 mM CaCl2 pH 7.4; equilibrium analysis (Req from a pseudo-first-order fit)
T1 construct: also called 2N4R SF9; SF9 tau; source: SF9 cells (baculovirus), purified (boiled lysate, HisTrap)

[2] = target: T2, Recombinant human 2N4R tau (full-length tau), WT (human, UniProt P10636-8 1-441); assay: SPR; SORL1 VPS10 domain amine-coupled to a CM5 chip; tau in single cycle titrations (3.8-310 nM); 0.15 M NaCl, 0.05% Tween 20, 1 mM CaCl2 pH 7.4; kinetic analysis, 1:1 fit, KD calculated from the kinetic parameters
T2 construct: the His tag applies only to the in-house protein; The uptake assays used 125I-labeled R&D SP-495; also called monomeric tau; microtubule-associated protein tau; source: His-tagged, E. coli, purified, or bought: R&D Systems (SP-495)

[3] = target: T1, Phosphorylated 2N4R tau produced in SF9 …; assay: as above

T2 sequence (P10636 other isoform, or with tags, fused parts or gaps): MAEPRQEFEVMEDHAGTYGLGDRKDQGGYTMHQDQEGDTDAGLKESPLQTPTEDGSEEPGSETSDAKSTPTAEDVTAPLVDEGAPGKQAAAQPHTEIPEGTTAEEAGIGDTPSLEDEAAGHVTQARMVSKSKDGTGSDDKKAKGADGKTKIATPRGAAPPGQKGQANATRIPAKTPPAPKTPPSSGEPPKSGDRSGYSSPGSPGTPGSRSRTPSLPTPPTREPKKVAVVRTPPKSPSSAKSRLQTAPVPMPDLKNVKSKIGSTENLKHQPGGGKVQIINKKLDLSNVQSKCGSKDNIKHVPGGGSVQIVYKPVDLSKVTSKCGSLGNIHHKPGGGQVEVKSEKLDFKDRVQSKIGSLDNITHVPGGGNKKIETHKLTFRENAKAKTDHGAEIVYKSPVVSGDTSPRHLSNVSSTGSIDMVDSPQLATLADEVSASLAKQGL
T1 sequence (P10636 other isoform, or with tags, fused parts or gaps): as above

B1: Recombinant human SORL1 VPS10 domain, aa 82 to 753 (domain or fragment, UniProt Q92673 82-753, looked up)
chain: SAALQPEPIKVYGQVSLNDSHNQMVVHWAGEKSNVIVALARDSLALARPKSSDVYVSYDYGKSFKKISDKLNFGLGNRSEAVIAQFYHSPADNKRYIFADAYAQYLWITFDFCNTLQGFSIPFRAADLLLHSKASNLLLGFDRSHPNKQLWKSDDFGQTWIMIQEHVKSFSWGIDPYDKPNTIYIERHEPSGYSTVFRSTDFFQSRENQEVILEEVRDFQLRDKYMFATKVVHLLGSEQQSSVQLWVSFGRKPMRAAQFVTRHPINEYYIADASEDQVFVCVSHSNNRTNLYISEAEGLKFSLSLENVLYYSPGGAGSDTLVRYFANEPFADFHRVEGLQGVYIATLINGSMNEENMRSVITFDKGGTWEFLQAPAFTGYGEKINCELSQGCSLHLAQRLSQLLNLQLRRMPILSKESAPGLIIATGSVGKNLASKTNVYISSSAGARWREALPGPHYYTWGDHGGIITAIAQGMETNELKYSTNEGETWKTFIFSEKPVFVYGLLTEPGEKSTVFTIFGSNKENVHSWLILQVNATDALGVPCTENDYKLWSPSDERGNECLLGHKTVFKRRTPHATCFNGEDFDRPVVVSNCSCTREDYECDFGFKMSEDLSLEVCVPDPEFSGKSYSPPVPCPVGSTYRRTRGYRKISGDTCSGGDVEARLEGELVPCP
notes: VPS10 domain of sortilin-related receptor 1 (SORL1), human, residues 82-753; also called vacuolar protein sorting 10 domain of SORL1; VPS10 peptide; source: bought: R&D Systems (9880-LA)
Kd [1]: 95 nM
Kd [2]: 15 nM
koff [2]: 0.41 s⁻¹
kon [2]: 5e+07 M⁻¹ s⁻¹
Kd [3]: 78 nM
koff [3]: 0.0061 s⁻¹
kon [3]: 85000 M⁻¹ s⁻¹
